Paper PMC3876282

Biological target: AvrPtoB BAK1-interacting domain, 250-359 (UniProt Q8RSY1)
Assay: gel filtration co-migration, Coomassie SDS-PAGE
Settings: reference: wild-type BAK1-KD

Substance	binding against the reference (sites T450)	binding against the reference (sites T449)
BAK1 kinase domain, 250-591 (from UniProt Q94F62) BAK1-KD T450A	lost	–
BAK1 kinase domain, 250-591 (from UniProt Q94F62) BAK1-KD T449A	–	lost
